Test results taken from publication PMC8752827, “Towards a generic prototyping approach for therapeutically-relevant peptides and proteins in a cell-free translation system” (Nature Communications, 2022).

Each substance was assayed against Trypsin (assay: trypsin-inhibitory assay (residual enzyme activity on a fluorogenic substrate); 100 pM trypsin pre-incubated with peptide (twofold dilution series) for 3 h at room temperature in 0.1 M NaCl, 10 mM CaCl2, 0.005% Triton X-100, 0.1 M Tris-HCl pH 8.0; residual activity with 10 uM Boc-Q-A-R-7-amido-4-methyl-coumarin; IC50 from a nonlinear fit of initial velocities (Prism)).
Chain of Trypsin (P00760 24-246): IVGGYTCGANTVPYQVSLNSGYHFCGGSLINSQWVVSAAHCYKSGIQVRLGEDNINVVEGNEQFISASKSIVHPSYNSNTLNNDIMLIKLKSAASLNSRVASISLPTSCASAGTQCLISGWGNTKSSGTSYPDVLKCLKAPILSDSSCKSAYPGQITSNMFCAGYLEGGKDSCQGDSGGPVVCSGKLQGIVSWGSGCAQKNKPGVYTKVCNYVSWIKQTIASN

Row | Substance | IC50
1 | chemically synthesized linear oxidized circularly permuted SFTI (prmSFTI) (peptide) | 0.361 nM
2 | cell-free synthesized linear oxidized circularly permuted SFTI (prmSFTI) (peptide) | 0.332 nM
3 | chemically synthesized backbone-cyclic sunflower trypsin inhibitor (SFTI) (peptide) | 0.171 nM
